Positions count from the first letter of the chain named. Numbers in names are those of the source.

For assay [1], the target named is T1, rHuman HGF R/c-MET/Fc Chimera, CF (R&D Systems Cat#358-MT/CF) (human, UniProt P08581 25-932).
T1 construct: Bought reagent; also called HGF R/Fc; hepatocyte growth factor receptor; Fc part of the bought chimera not given
Briefly: ECL Multispot (MSD), 10 nM Fab; blank 372.

Assay [2] has as its target T2, rHuman CD44/Fc Chimera, CF (R&D Systems Cat#3660-CD) (human, UniProt P16070 21-220).
T2 construct: Bought reagent; Fc part of the bought chimera not given
Briefly: ECL Multispot (MSD), 10 nM Fab; blank 372.

Assay [3] deals with T3, rHuman Notch-1/Fc Chimera, CF (R&D Systems Cat#3647-TK) (human, UniProt P46531 19-526).
T3 construct: Bought reagent; Fc part of the bought chimera not given
The assay can be described thus: ECL Multispot (MSD), 10 nM Fab; blank 372.

For assay [4], the target named is T4, rHuman ErbB2/Fc Chimera, CF (R&D Systems Cat#1129-ER) (human, UniProt P04626 23-652).
T4 construct: Bought reagent; also called human epidermal growth factor 2 receptor; Fc part of the bought chimera not given
The assay can be described thus: ECL Multispot (MSD), 10 nM Fab; blank 372.

The target in assay [5] is T5, rHuman IGF-1 sR, CF (R&D Systems Cat#391-GR) (human, UniProt P08069 31-932).
T5 construct: Bought soluble receptor; also called insulin-like growth factor-1 soluble receptor
The assay can be described thus: ECL Multispot (MSD), 10 nM Fab; blank 372.

The target of assay [6] is T6, rHuman EGF R/Fc Chimera, CF (R&D Systems Cat#344-ER) (human, UniProt P00533 25-645).
T6 construct: Bought reagent; also called epidermal growth factor receptor; Fc part of the bought chimera not given
Briefly: ECL Multispot (MSD), 10 nM Fab; blank 372.

For assay [7], the target named is T7, rHuman Erythropoietin R/Fc Chimera, CF (R&D Systems Cat#963-ER) (human, UniProt P19235 25-250).
T7 construct: Bought reagent; also called EPO R; EPO R/Fc; Fc part of the bought chimera not given
T7 sequence (looked up): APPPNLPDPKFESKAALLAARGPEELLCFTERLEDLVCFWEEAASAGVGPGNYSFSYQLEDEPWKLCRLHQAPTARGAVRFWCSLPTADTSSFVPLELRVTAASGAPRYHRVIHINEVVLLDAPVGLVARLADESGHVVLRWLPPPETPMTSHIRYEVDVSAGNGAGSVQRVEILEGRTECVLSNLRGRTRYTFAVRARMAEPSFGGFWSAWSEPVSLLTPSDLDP
The assay can be described thus: ECL Multispot (MSD), 10 nM Fab; blank 372.

Assay [8] concerns the target T8, rHuman P-Cadherin/Fc Chimera, CF (R&D Systems Cat#861-PC) (human, UniProt P22223 108-654).
T8 construct: Bought reagent; Fc part of the bought chimera not given
The assay can be described thus: ECL Multispot (MSD), 10 nM Fab; blank 372.

Assay [9] addresses T1, rHuman HGF R/c-MET/Fc Chimera, CF (R&D …). Briefly: ECL Multispot (MSD), 10 nM Fab; blank 320.
For assay [10], the target named is T2, rHuman CD44/Fc Chimera, CF (R&D Systems …). Briefly: ECL Multispot (MSD), 10 nM Fab; blank 320.
Assay [11] deals with T3, rHuman Notch-1/Fc Chimera, CF (R&D …). Briefly: ECL Multispot (MSD), 10 nM Fab; blank 320.
Assay [12] addresses T4, rHuman ErbB2/Fc Chimera, CF (R&D …). The assay can be described thus: ECL Multispot (MSD), 10 nM Fab; blank 320.
The target in assay [13] is T5, rHuman IGF-1 sR, CF (R&D Systems …). The assay can be described thus: ECL Multispot (MSD), 10 nM Fab; blank 320.
The target of assay [14] is T6, rHuman EGF R/Fc Chimera, CF (R&D …). The assay can be described thus: ECL Multispot (MSD), 10 nM Fab; blank 320.
Assay [15] addresses T7, rHuman Erythropoietin R/Fc Chimera, CF …. Briefly: ECL Multispot (MSD), 10 nM Fab; blank 320.
The target of assay [16] is T8, rHuman P-Cadherin/Fc Chimera, CF (R&D …). Briefly: ECL Multispot (MSD), 10 nM Fab; blank 320.
For assay [17], the target named is T1, rHuman HGF R/c-MET/Fc Chimera, CF (R&D …). Briefly: ECL Multispot (MSD), 10 nM Fab; blank 198.
Assay [18] has as its target T2, rHuman CD44/Fc Chimera, CF (R&D Systems …). The assay can be described thus: ECL Multispot (MSD), 10 nM Fab; blank 198.
Assay [19] addresses T3, rHuman Notch-1/Fc Chimera, CF (R&D …). The assay can be described thus: ECL Multispot (MSD), 10 nM Fab; blank 198.
Assay [20] concerns the target T4, rHuman ErbB2/Fc Chimera, CF (R&D …). Briefly: ECL Multispot (MSD), 10 nM Fab; blank 198.
Assay [21] concerns the target T5, rHuman IGF-1 sR, CF (R&D Systems …). The assay can be described thus: ECL Multispot (MSD), 10 nM Fab; blank 198.
For assay [22], the target named is T6, rHuman EGF R/Fc Chimera, CF (R&D …). Briefly: ECL Multispot (MSD), 10 nM Fab; blank 198.
Assay [23] has as its target T7, rHuman Erythropoietin R/Fc Chimera, CF …. Briefly: ECL Multispot (MSD), 10 nM Fab; blank 198.
Assay [24] addresses T8, rHuman P-Cadherin/Fc Chimera, CF (R&D …). Briefly: ECL Multispot (MSD), 10 nM Fab; blank 198.
Assay [25] concerns the target T9, rHuman ErbB2/Fc Chimera, CF (R&D Systems Cat#1129-ER) (human, UniProt P04626 23-652).
T9 construct: Bought reagent; also called human epidermal growth factor 2 receptor; Fc part of the bought chimera not given
The assay can be described thus: ECL Multispot (MSD) assay, antigen spotted on plate, 10 nM Fab; blank spot of this row 290.

For assay [26], the target named is T10, rHuman EGF R/Fc Chimera, CF (R&D Systems Cat#344-ER) (human, UniProt P00533 25-645).
T10 construct: Bought reagent; also called epidermal growth factor receptor; Fc part of the bought chimera not given
Described as above.

In assay [27] the target is T11, rHuman HGF R/c-MET/Fc Chimera, CF (R&D Systems Cat#358-MT/CF) (human, UniProt P08581 25-932).
T11 construct: Bought reagent; also called HGF R/Fc; hepatocyte growth factor receptor; Fc part of the bought chimera not given
The description is as above.

For assay [28], the target named is T12, rHuman IGF-1 sR, CF (R&D Systems Cat#391-GR) (human, UniProt P08069 31-932).
T12 construct: Bought soluble receptor; The column head prints only 'IGF-1'; also called insulin-like growth factor-1 soluble receptor
The description is as above.

The target in assay [29] is T13, rHuman P-Cadherin/Fc Chimera, CF (R&D Systems Cat#861-PC) (human, UniProt P22223 108-654).
T13 construct: Bought reagent; Fc part of the bought chimera not given
Described as above.

B1: Fab VH1-46_IGHD6-6*01_IGHJ1*01 S102A/S103P/S104F (APF) & L6_IGKJ1*01 (Fab, V domains shown)
VH: QVQLVQSGAEVKKPGASVKVSCKASGYTFTSYYMHWVRQAPGQGLEWMGIINPSGGSTSYAQKFQGRVTMTRDTSTSTVYMELSSLRSEDTAVYYCAREEYAPFSAEYFQHWGQGTLVTVSS
VL: not shown
notes: Tested as a Fab made in E. coli; The heavy chain plasmid A adds CH1 with His6 and Flag tags; The light chain plasmid C adds kappa CL; also called H:APF & L:wt; APF triple mutant
B1: the ECL signal in assay [1] was found to be 339; in assay [2], 298; in [3], 433; in [4], 513; in [5], 318; in [6], 460. Moreover, the ECL signal in [7] came to 252; in assay [8], 338; in assay [9], 269; in [10] it was 385; in assay [11] it was 390; in [12], 413. For the same molecule, the ECL signal in assay [13] was found to be 270; in [14], 324; in assay [15], 421; in assay [16], 301; in [17] it was 258; in assay [18] it was 214. Further, the ECL signal in assay [19] amounted to 336; in assay [20], 200; in [21], 230; in [22], 255; in assay [23], 228; in [24], 280.

B2: Fab VH1-46_IGHD6-6*01_IGHJ1*01 S102A/S103P/S104F/H111F (APFF) & L6_IGKJ1*01 (Fab, V domains shown)
VH: B1 VH with H111F
VL: not shown
notes: Fab format as for APF (CH1 and kappa CL from the expression plasmids); also called APF H111F; H:APFF & L:wt
Regarding B2, the ECL signal came to 370 in assay [25]; 409 in [26]; 493 in assay [27]; 345 in assay [28]; 461 in assay [29].

The values above are taken from patent US20120316071A1 (published 2012).
